For one experiment, the target named is T1, CaSR (细胞内钙流实验中的受体) (human, UniProt P41180 20-1078).
T1 sequence (looked up): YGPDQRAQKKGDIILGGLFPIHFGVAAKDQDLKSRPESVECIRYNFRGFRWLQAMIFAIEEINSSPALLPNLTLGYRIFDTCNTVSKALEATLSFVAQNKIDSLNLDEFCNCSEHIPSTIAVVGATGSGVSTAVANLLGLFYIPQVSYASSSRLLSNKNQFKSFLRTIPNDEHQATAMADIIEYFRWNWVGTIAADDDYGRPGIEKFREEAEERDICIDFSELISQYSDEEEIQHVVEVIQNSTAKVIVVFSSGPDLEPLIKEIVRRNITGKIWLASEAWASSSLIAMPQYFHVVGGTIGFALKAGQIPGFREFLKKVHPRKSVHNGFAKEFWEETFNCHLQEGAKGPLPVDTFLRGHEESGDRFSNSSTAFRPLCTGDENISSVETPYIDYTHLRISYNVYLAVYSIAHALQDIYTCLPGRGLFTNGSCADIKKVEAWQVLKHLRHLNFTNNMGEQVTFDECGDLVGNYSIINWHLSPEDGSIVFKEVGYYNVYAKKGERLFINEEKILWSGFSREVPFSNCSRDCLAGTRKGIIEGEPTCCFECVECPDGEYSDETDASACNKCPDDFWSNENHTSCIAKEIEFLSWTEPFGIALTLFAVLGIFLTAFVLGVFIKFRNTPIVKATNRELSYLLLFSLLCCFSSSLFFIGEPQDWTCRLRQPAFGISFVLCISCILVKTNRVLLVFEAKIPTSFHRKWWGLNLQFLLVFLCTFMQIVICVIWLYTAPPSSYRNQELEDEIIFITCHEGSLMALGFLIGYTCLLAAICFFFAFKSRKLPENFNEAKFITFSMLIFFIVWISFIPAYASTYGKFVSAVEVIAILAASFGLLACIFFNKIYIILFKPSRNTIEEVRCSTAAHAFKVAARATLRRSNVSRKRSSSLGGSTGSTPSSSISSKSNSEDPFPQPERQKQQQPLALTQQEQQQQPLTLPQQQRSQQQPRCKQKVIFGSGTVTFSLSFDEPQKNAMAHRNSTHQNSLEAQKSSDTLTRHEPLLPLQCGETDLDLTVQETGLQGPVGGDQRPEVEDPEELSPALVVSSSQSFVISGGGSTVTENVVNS
Description: cell-based or functional assay.

Experiment [1] concerns the target T2, Biotin-CaSR蛋白 (人体细胞外钙敏感受体, Human extracellular calcium-sensing receptor) (human, UniProt P41180 20-870, limits assumed, biotinylated (Biotin-CaSR); site not stated).
T2 construct: Purified, detergent-solubilised CaSR; It was biotinylated and captured on NeutrAvidin plates for ELISA or on streptavidin biosensors for Octet
T2 sequence (looked up): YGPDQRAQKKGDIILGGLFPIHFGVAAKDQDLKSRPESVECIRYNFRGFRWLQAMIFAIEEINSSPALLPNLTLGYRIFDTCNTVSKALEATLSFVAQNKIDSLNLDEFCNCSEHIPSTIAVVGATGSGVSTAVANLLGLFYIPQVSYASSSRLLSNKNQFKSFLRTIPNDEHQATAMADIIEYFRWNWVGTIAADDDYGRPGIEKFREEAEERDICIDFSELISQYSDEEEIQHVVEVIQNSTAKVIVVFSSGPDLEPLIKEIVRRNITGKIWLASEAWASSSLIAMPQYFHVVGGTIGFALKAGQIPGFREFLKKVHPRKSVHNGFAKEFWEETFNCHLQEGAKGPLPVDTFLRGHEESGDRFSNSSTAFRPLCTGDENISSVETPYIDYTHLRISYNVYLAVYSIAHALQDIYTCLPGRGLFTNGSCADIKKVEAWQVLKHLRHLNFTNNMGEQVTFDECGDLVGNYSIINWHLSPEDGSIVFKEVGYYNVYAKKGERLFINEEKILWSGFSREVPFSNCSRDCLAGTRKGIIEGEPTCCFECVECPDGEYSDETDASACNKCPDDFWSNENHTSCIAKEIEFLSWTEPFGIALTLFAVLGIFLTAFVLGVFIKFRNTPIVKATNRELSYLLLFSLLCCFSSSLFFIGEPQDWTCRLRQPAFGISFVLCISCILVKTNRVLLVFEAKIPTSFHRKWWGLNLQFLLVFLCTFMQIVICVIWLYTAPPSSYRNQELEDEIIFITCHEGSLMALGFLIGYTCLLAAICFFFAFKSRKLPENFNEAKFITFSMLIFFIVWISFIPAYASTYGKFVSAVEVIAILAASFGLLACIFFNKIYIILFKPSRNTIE
Description: BLI (Octet-Red96), Biotin-CaSR on streptavidin biosensor, nanobody in solution. A general note: BLI is a label-free optical method that tracks binding on a fibre tip over time.

For experiment [2], the target named is T2, Biotin-CaSR蛋白 (人体细胞外钙敏感受体, Human …). Description: ELISA, Biotin-CaSR on NeutrAvidin plate, nanobody titrated 1e-11 to 1e-6 mol/l, anti-HA detection. (ELISA stands for enzyme-linked immunosorbent assay.)

B1: 纳米抗体2D11 (VHH)
VHH: QVQLQESGGGSVQAGGSLRLSCAASGFPISTYDMGWFRQAPGKEREGVVGITDSFSIKYEDSVKGRFTISRDNAKNALYLQMNSLKPEDTGMYYCAAGDARWSLLLRAEQYNYWGQGTQVTVSS
notes: Camel VHH expressed in E. coli and purified on a nickel column; It was detected through an HA tag; also called 抗体株2D11
As a reminder, the Kd is the concentration at which binding is half-saturated. As for B1, in the experiment with CaSR (细胞内钙流实验中的受体), the “钙流 IC50 (细胞外钙离子浓度1.2mM)” value was 41 nM. Moreover, the Kd in experiment [1] was found to be 0.24 nM. Besides, the EC50 in experiment [2] was determined as 1.9.

B2: 纳米抗体2D4 (VHH)
VHH: LQESGGGSVQIGGSLRLSCAASGYTYMRYSSFCMGWFRQAPGKEREGVAAIDSGRRTTHADSVKGRFTISRDNAKNTLYLQMNSLKPEDTAMYYCAARDVGYCGGYWARRDFAYWGQGTQVTVSS
notes: Camel VHH expressed in E. coli and purified on a nickel column; It was detected through an HA tag; also called 抗体株2D4
Turning to B2, the “钙流 IC50 (细胞外钙离子浓度1.2mM)” value in the experiment with CaSR (细胞内钙流实验中的受体) was 65 nM. Besides, the Kd in experiment [1] turned out to be 0.46 nM. In addition, in experiment [2], the EC50 worked out at 0.9.

B3: 纳米抗体NB88 (VHH)
VHH: QVQLQESGGGSVQAGESLRLSCAASRYGYSRNWMGWFRQPPGKEREGVAVIYTGGSKTAYADAVKGRFIISLDNANNTVYLQMNSLKPEDTAMYYCAAGLVAYGRRWSPEAYKYWGQGTQVTVSS
notes: Camel VHH expressed in E. coli and purified on a nickel column; It was detected through an HA tag; also called 抗体株NB88
B3: the “钙流 IC50 (细胞外钙离子浓度1.2mM)” value in the experiment with CaSR (细胞内钙流实验中的受体) is 101 nM. Also, the Kd in experiment [1] came out at 3.9 nM. For the same molecule, the EC50 in experiment [2] came to 1.

B4: 纳米抗体1C12 (VHH)
VHH: QVQLQESGGGSVQAGGSLRLSCTASRYTYNSPLYMAWFRQAPGKEREGVAHIDSDGSITYTDSVKGRFTISRDNAKTTLYLQMNNLNPEDTAMYYCAADPLHRWSHRLEAIGYRYWGQGTQVTVSS
notes: Camel VHH expressed in E. coli and purified on a nickel column; also called 抗体株1C12
With B4, the “钙流 IC50 (细胞外钙离子浓度1.2mM)” value with CaSR (细胞内钙流实验中的受体) stood at 107 nM. The dissociation constant (Kd) in experiment [1] was found to be 0.9 nM. In addition, in experiment [2], the EC50 was 2.1.

B5: 纳米抗体NB32 (VHH)
VHH: QVQLQESGGGSVQAGGSLTLSCAASEYKHRYSTYSMGWFRQAPGKEREGVAAIYSDGGTRYADSVKGRFTISKDNAKSTLYLLMNSLKPEDTAMYYCAASQTFRGWYPYEYNYWGQGTQVTVSS
notes: Camel VHH expressed in E. coli and purified on a nickel column; It was detected through an HA tag; also called 抗体株NB32
As to B5, the “钙流 IC50 (细胞外钙离子浓度1.2mM)” value with CaSR (细胞内钙流实验中的受体) amounted to 301 nM. Also, the Kd in experiment [1] came out at 3.2 nM. Further, in experiment [2], the EC50 turned out to be 3.

Source of the values: patent CN115873113A (SHANGHAI INST MATERIA MEDICA CAS, dated 2023).
